Experimental data published in patent US20180037644A1 (Pfizer, published 2018).
Where two headings read alike, the source gives them in different places.

Tests used:
[1] = biological target: T1, human IL-33 WT (R&D) (human, UniProt O95760 112-270); test: cell-based or functional assay
T1 sequence: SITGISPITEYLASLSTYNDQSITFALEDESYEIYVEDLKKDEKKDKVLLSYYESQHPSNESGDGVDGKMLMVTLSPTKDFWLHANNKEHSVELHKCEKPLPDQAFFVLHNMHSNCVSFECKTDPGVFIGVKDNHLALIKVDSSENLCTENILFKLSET

[2] = biological target: T2, human IL-33 (mm2) (human, UniProt O95760 112-270); test: cell-based or functional assay
T2 chain: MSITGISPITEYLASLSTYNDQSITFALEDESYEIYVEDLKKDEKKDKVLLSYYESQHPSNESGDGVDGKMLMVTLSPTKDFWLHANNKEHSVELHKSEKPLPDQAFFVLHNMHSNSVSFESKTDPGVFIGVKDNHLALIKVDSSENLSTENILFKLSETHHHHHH

[3] = biological target: T2, human IL-33 (mm2); test: cell-based or functional assay
[4] = biological target: T2, human IL-33 (mm2); test: cell-based or functional assay
[5] = biological target: T3, cynomolgus monkey IL-33 (cys mut) (cynomolgus monkey); test: cell-based or functional assay
T3 chain: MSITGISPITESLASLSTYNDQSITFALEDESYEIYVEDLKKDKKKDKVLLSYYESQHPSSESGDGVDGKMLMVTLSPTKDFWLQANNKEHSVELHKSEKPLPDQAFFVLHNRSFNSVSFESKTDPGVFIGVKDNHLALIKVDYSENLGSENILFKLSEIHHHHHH

[6] = biological target: T1, human IL-33 WT (R&D); test: cell-based or functional assay; remark: listed apart in the source
[7] = biological target: T2, human IL-33 (mm2); test: cell-based or functional assay
[8] = biological target: T3, cynomolgus monkey IL-33 (cys mut); test: SPR, IgG captured by anti-human Fc, IL-33 in solution
Protocol: (§1) Binding to human and cynomolgus monkey IL-33 was measured by surface plasmon resonance using a BIAcore T200 instrument. An anti-human Fc antibody was immobilized on a CM5 chip, and anti-IL-33 antibodies were captured.

[9] = biological target: T2, human IL-33 (mm2); test: as above
Protocol: as §1

[10] = biological target: T3, cynomolgus monkey IL-33 (cys mut); test: cell-based or functional assay
[11] = biological target: T2, human IL-33 (mm2); test: cell-based or functional assay
[12] = biological target: T3, cynomolgus monkey IL-33 (cys mut); test: cell-based or functional assay
[13] = biological target: T2, human IL-33 (mm2); test: cell-based or functional assay
[14] = biological target: T3, cynomolgus monkey IL-33 (cys mut); test: cell-based or functional assay
[15] = biological target: T2, human IL-33 (mm2); test: cell-based or functional assay
[16] = biological target: T1, human IL-33 WT (R&D); test: cell-based or functional assay; remark: listed apart in the source
[17] = biological target: T2, human IL-33 (mm2); test: cell-based or functional assay
[18] = biological target: T3, cynomolgus monkey IL-33 (cys mut); test: cell-based or functional assay
[19] = biological target: T2, human IL-33 (mm2); test: cell-based or functional assay
[20] = biological target: T3, cynomolgus monkey IL-33 (cys mut); test: cell-based or functional assay
[21] = biological target: T1, human IL-33 WT (R&D); test: cell-based or functional assay; remark: listed apart in the source
[22] = biological target: T2, human IL-33 (mm2); test: cell-based or functional assay
[23] = biological target: T4, wild-type cynomolgus monkey IL-33 (cynomolgus monkey); test: cell-based or functional assay
T4 chain: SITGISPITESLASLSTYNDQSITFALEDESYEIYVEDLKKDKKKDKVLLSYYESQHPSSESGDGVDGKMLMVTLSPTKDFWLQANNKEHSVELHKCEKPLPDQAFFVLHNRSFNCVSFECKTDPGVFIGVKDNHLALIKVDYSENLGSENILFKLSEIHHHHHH

[24] = biological target: T3, cynomolgus monkey IL-33 (cys mut); test: cell-based or functional assay
[25] = biological target: T1, human IL-33 WT (R&D); test: cell-based or functional assay; remark: listed apart in the source
[26] = biological target: T2, human IL-33 (mm2); test: cell-based or functional assay
[27] = biological target: T4, wild-type cynomolgus monkey IL-33; test: cell-based or functional assay
[28] = biological target: T3, cynomolgus monkey IL-33 (cys mut); test: cell-based or functional assay
[29] = biological target: T1, human IL-33 WT (R&D); test: cell-based or functional assay; remark: listed apart in the source
[30] = biological target: T2, human IL-33 (mm2); test: cell-based or functional assay
[31] = biological target: T1, human IL-33 WT (R&D); test: cell-based or functional assay; remark: listed apart in the source
[32] = biological target: T2, human IL-33 (mm2); test: cell-based or functional assay
[33] = biological target: T1, human IL-33 WT (R&D); test: Octet, captured on anti-Fc tip; IL-33 premixed with IL33-158LS (competitor)

B1: 7E8 CDR graft (antibody, human IgG1, kappa)
heavy: HSEVQLVESGGGLVQPGGSLRLSCAASGFTFSSYWMYWVRQAPGKGLEWVASITPNGGNTYYPDSVKGRFTISRDNAKNSLYLQMNSLRAEDTAVYYCARGHYYYTSYSLGYWGQGTLVTVSSASTKGPSVFPLAPSSKSTSGGTAALGCLVKDYFPEPVTVSWNSGALTSGVHTFPAVLQSSGLYSLSSVVTVPSSSLGTQTYICNVNHKPSNTKVDKKVEPKSCDKTHTCPPCPAPEAAGAPSVFLFPPKPKDTLMISRTPEVTCVVVDVSHEDPEVKFNWYVDGVEVHNAKTKPREEQYNSTYRVVSVLTVLHQDWLNGKEYKCKVSNKALPAPIEKTISKAKGQPREPQVYTLPPSREEMTKNQVSLTCLVKGFYPSDIAVEWESNGQPENNYKTTPPVLDSDGSFFLYSKLTVDKSRWQQGNVFSCSVMHEALHNHYTQKSLSLSPGK
light: DIQMTQSPSSLSASVGDRVTITCKASQNINKHLDWYQQKPGKAPKLLIYFTNNLQTGVPSRFSGSGSGTDFTLTISSLQPEDFATYYCFQYNNGWTFGGGTKVEIKRTVAAPSVFIFPPSDEQLKSGTASVVCLLNNFYPREAKVQWKVDNALQSGNSQESVTEQDSKDSTYSLSSTLTLSKADYEKHKVYACEVTHQGLSSPVTKSFNRGEC
notes: also called CDR-grafted 7E8; 7E8 CDR-grafted
- EC50 of IL-33 + 2 pM 7E8, HEK293 ST2 NFkB reporter cells [1]: 8 pM
- EC50 of IL-33 + 20 pM 7E8, HEK293 ST2 NFkB reporter cells [1]: 10.2 pM
- EC50 of IL-33 + 200 pM 7E8, HEK293 ST2 NFkB reporter cells [1]: 25.8 pM
- EC50 of IL-33 + 2 nM 7E8, HEK293 ST2 NFkB reporter cells [1]: 103 pM
- EC50 of IL-33 + 20 nM 7E8, HEK293 ST2 NFkB reporter cells [1]: 653 pM
- EC50 of IL-33 + 0.2 pM 7E8, human PBMC donor 149 [2]: 0.9 pM
- EC50 of IL-33 + 0.2 pM 7E8, human PBMC donor 172 [2]: 15.1 pM
- EC50 of IL-33 + 2 pM 7E8, human PBMC donor 149 [2]: 2.6 pM
- EC50 of IL-33 + 2 pM 7E8, human PBMC donor 172 [2]: 23.2 pM
- EC50 of IL-33 + 20 pM 7E8, HEK293 ST2 NFkB reporter cells [2]: 2.6 pM
- EC50 of IL-33 + 20 pM 7E8, human PBMC donor 149 [2]: 29.1 pM
- EC50 of IL-33 + 20 pM 7E8, human PBMC donor 172 [2]: 154 pM
- EC50 of IL-33 + 200 pM 7E8, HEK293 ST2 NFkB reporter cells [2]: 29.1 pM
- EC50 of IL-33 + 200 pM 7E8, human PBMC donor 149 [2]: 262 pM
- EC50 of IL-33 + 200 pM 7E8, human PBMC donor 172 [2]: 400 pM
- EC50 of IL-33 + 2 nM 7E8, HEK293 ST2 NFkB reporter cells [2]: 262 pM
- EC50 of IL-33 + 2 nM 7E8, human PBMC donor 149 [2]: 2830 pM
- EC50 of IL-33 + 2 nM 7E8, human PBMC donor 172 [2]: 1220 pM
- EC50 of IL-33 + 20 nM 7E8, HEK293 ST2 NFkB reporter cells [2]: 2830 pM
- IC50, HEK293 ST2 NFkB [3]: 0.019 nM
- IC50, IFN-γ production in human PBMC [4]: 1.4 pM
- IC50, HEK293 ST2 NFkB [5]: 0.069 nM
- IC50, HEK293 ST2 NFkB [6]: 3.21 nM
- IC50, HEK293 ST2 NFkB [7]: 0.043 nM
- Kd [8]: 0.142 nM
- Kd [9]: 0.171 nM
- IC50, HEK293 ST2 NFkB [10]: 0.054 nM
- IC50, HEK293 ST2 NFkB [11]: 0.04 nM
- IC50, HEK293 ST2 NFkB cyno IL-33 [12]: 0.18 nM
- IC50, HEK293 ST2 NFkB [13]: 0.114 nM
- IC50, PBMC mm2 [13]: 4 pM
- IC50, whole blood mm2 [13]: 9 pM
- IC50, HEK293 ST2 NFkB [14]: 0.131 nM
- IC50, HEK293 ST2 NFkB [15]: 0.059 nM
- IC50, human whole blood [16]: 0.387 nM
- IC50, human whole blood [17]: 0.014 nM
- IC50, HEK293 ST2 NFkB [18]: 0.077 nM
- IC50, HEK293 ST2 NFkB [19]: 0.057 nM
- IC50, HEK293 ST2 NFkB [20]: 0.184 nM
- IC50, HEK293 ST2 NFkB [21]: 0.322 nM
- IC50, HEK293 ST2 NFkB [22]: 0.093 nM

B2: IL33-158LS (antibody, human IgG1, kappa)
heavy: EVQLVESGGGLVQPGGSLRLSCAASGFTFSSYWMYWVRQAPGKGLEWVAAITPNAGEDYYPESVKGRFTISRDNAKNSLYLQMNSLRAEDTAVYYCARGHYYYTSYSLGYWGQGTLVTVSSASTKGPSVFPLAPSSKSTSGGTAALGCLVKDYFPEPVTVSWNSGALTSGVHTFPAVLQSSGLYSLSSVVTVPSSSLGTQTYICNVNHKPSNTKVDKKVEPKSCDKTHTCPPCPAPEAAGAPSVFLFPPKPKDTLMISRTPEVTCVVVDVSHEDPEVKFNWYVDGVEVHNAKTKPREEQYNSTYRVVSVLTVLHQDWLNGKEYKCKVSNKALPAPIEKTISKAKGQPREPQVYTLPPSREEMTKNQVSLTCLVKGFYPSDIAVEWESNGQPENNYKTTPPVLDSDGSFFLYSKLTVDKSRWQQGNVFSCSVLHEALHSHYTQKSLSLSPG
light: DIQMTQSPSSLSASVGDRVTITCKASQNINKHLDWYQQKPGKAPKLLIYFTNNLQTGVPSRFSGSGSGTDFTLTISSLQPEDFATYYCFQYNQGWTFGGGTKVEIKRTVAAPSVFIFPPSDEQLKSGTASVVCLLNNFYPREAKVQWKVDNALQSGNSQESVTEQDSKDSTYSLSSTLTLSKADYEKHKVYACEVTHQGLSSPVTKSFNRGEC
- IC50, IFN-γ production in human PBMC [4]: 1.4 pM
- Cynomolgus monkey:human IC50 ratio: wild-type IL-33 [23]: 4.2
- IC50, HEK293 ST2 NFkB (DTT-pretreated IL-33) [23]: 1.39 nM
- Cynomolgus monkey:human IC50 ratio: cysteine mutant IL-33 [24]: 1.8
- IC50, HEK293 ST2 NFkB [24]: 0.034 nM
- IC50, HEK293 ST2 NFkB (DTT-pretreated IL-33) [25]: 0.331 nM
- IC50, HEK293 ST2 NFkB [26]: 0.019 nM
- Cynomolgus monkey:human IC50 ratio: wild-type IL-33 [27]: 9.2
- IC50, HEK293 ST2 NFkB [27]: 0.562 nM
- Cynomolgus monkey:human IC50 ratio: cysteine mutant IL-33 [28]: 1.4
- IC50, HEK293 ST2 NFkB [28]: 0.013 nM
- IC50, HEK293 ST2 NFkB [29]: 0.061 nM
- IC50, HEK293 ST2 NFkB [30]: 9 pM
- IC50, human whole blood [16]: 0.868 nM
- IC50, human whole blood [17]: 0.021 nM
- IC50, HEK293 ST2 NFkB [31]: 2.66 nM
- IC50, HEK293 ST2 NFkB [32]: 0.079 nM
- IC50, HEK293 ST2 NFkB [20]: 0.198 nM
- IC50, HEK293 ST2 NFkB [21]: 0.983 nM
- IC50, HEK293 ST2 NFkB [22]: 0.162 nM

B3: IL33-271 (antibody, human IgG1, kappa, V domains shown)
VH: QVLLVQSGAEVKKPGATVKVSCKASGSTFTGYYMHWVRQAPGQGLEWMGWINPNNGGTNYAQKFQGRVTMTRDTSISTAYMELSRLRSDDTAVYYCARELRYNWKSWGQGTLVTVSS
VL: EIVLTQSPGTLSLSPGERVTLSCRASQSVGRPYLAWYQQIPGQAPRLLIYGASSRATDIPDRFSGNGSGTDFTLTISRLEPEDFAVYYCQQYDNSPYTFGQGTRLEIKR
notes: also called control non-neutralizing anti-IL-33 antibody
- binding result [33]: binds
